Assay results reported in US20150258192A1, “COMPOSITIONS AND METHODS FOR PREVENTING OR TREATING CHRONIC LUNG ALLOGRAFT DYSFUNCTION (CLAD) AND IDIOPATHIC PULMONARY FIBROSIS (IPF)” (priority 2014, published 2015).
No end group written: not given here.

Columns and labels:
Assay in all cases: Kinase Profiling Assay
Type in all cases: biochemical
Conditions in all cases: peptide 100 μM
ARK5(h) = target: T1, ARK5(h) (Homo sapiens, UniProt O60285)
T1 sequence (O60285 1-661): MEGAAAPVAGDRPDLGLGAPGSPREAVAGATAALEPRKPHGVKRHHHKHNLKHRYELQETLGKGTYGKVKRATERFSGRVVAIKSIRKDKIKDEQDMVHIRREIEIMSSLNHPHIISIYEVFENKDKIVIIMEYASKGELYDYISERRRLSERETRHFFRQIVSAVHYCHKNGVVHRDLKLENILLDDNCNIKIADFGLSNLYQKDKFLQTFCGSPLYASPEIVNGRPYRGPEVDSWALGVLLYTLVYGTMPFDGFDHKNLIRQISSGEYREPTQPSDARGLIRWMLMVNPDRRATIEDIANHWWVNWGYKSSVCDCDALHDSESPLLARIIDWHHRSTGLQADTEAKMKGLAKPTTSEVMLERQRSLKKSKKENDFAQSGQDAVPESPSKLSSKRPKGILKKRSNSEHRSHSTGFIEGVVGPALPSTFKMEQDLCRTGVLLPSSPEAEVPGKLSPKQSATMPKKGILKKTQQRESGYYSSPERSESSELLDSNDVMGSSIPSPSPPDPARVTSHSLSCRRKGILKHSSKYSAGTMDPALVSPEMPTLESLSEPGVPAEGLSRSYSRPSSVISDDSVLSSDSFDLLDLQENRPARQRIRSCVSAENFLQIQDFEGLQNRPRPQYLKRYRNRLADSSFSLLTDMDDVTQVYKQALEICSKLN
Method in brief: (§1)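 Activity remaining relative to an uninhibited control was determined by scintillation counting of labeled substrate bound to a negatively charged filter. Radiolabeled phosphate came from ATP; the substrate carried positive charge. Duplicate measurements, within a 266-kinase human panel.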

SAPK2a(T106M)(h) = target: T2, SAPK2a(T106M)(h) (Homo sapiens, UniProt Q16539, T106M)
T2 construct: purchased Millipore
Method in brief: as §1

MKK7β(h) = target: T3, MKK7β(h) (Homo sapiens, UniProt O14733)
T3 construct: purchased Millipore
T3 sequence (O14733 1-419): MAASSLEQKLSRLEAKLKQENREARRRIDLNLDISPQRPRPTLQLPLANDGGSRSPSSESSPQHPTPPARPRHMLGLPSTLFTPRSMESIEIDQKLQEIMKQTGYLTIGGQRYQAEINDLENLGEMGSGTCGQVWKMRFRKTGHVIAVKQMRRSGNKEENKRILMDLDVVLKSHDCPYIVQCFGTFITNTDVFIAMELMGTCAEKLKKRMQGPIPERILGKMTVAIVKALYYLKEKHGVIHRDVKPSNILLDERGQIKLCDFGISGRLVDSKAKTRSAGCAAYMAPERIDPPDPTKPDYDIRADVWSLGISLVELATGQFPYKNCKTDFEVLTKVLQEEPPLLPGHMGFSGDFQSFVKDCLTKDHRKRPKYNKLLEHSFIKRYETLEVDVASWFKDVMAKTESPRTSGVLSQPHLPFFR
Method in brief: as §1

CaMKIδ(h) = CaMKIδ(h) (Homo sapiens, UniProt Q8IU85)
Method in brief: as §1

ZIPK(h) = ZIPK(h) (Homo sapiens, UniProt O43293)
Method in brief: as §1

PKCα(h) = PKCα(h) (Homo sapiens, UniProt P17252)
Method in brief: as §1

PKCζ(h) = target: T4, PKCζ(h) (Homo sapiens, UniProt Q05513)
T4 sequence (Q05513 1-592): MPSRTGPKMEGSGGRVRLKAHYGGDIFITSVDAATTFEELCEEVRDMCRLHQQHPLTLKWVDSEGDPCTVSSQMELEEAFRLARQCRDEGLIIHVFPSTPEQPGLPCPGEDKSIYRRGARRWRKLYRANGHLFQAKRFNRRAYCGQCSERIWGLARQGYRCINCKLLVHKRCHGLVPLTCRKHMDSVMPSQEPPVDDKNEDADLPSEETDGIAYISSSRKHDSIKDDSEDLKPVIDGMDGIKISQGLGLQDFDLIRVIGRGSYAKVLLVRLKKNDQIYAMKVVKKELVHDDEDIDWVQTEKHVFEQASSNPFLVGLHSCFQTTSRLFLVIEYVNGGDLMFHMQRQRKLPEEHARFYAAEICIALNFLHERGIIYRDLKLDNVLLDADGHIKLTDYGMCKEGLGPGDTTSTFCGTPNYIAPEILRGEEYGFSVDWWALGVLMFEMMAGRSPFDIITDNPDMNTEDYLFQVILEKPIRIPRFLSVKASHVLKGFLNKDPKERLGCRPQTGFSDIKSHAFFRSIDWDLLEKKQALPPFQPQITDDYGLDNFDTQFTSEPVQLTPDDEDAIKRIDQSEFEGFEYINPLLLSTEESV
Method in brief: as §1

MSK2(h) = target: T5, MSK2(h) (Homo sapiens, UniProt O75676)
T5 construct: purchased Millipore
Method in brief: as §1

cKit(h) = cKit(h) (Homo sapiens, UniProt P10721)
Method in brief: as §1

LIMK1(h) = target: T6, LIMK1(h) (Homo sapiens, UniProt P53667)
T6 construct: purchased Millipore
Method in brief: as §1

T6 sequence (P53667 whole entry): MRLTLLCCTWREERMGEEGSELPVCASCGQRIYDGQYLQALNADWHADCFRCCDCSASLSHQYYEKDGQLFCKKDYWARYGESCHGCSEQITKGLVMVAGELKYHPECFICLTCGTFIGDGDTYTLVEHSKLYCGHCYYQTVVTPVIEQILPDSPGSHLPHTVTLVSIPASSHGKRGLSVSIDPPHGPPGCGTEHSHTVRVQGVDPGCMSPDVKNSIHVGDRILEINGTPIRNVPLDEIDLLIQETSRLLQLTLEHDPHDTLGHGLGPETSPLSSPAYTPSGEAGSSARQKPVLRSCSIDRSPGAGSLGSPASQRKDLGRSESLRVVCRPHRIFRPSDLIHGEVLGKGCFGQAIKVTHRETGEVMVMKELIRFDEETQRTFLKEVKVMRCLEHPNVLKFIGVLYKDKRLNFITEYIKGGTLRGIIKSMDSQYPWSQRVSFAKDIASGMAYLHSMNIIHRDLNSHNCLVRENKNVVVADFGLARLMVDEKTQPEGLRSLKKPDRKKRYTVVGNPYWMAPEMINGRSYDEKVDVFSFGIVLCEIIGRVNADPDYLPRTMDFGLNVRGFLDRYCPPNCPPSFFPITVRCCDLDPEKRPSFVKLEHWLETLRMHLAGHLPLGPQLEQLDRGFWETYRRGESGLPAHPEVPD
CaMKIδ(h), sequence (Q8IU85 whole entry): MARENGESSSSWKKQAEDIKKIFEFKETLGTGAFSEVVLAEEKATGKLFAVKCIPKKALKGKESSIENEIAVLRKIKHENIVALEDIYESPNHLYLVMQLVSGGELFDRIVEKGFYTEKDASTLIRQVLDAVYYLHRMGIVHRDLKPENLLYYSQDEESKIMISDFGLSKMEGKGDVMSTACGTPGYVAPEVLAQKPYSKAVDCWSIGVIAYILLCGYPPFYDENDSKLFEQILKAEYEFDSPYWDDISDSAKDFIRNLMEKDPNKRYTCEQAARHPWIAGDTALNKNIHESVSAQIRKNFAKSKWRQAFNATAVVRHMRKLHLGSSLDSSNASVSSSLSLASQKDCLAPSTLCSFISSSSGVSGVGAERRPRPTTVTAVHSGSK
T2 sequence (Q16539 whole entry T106M): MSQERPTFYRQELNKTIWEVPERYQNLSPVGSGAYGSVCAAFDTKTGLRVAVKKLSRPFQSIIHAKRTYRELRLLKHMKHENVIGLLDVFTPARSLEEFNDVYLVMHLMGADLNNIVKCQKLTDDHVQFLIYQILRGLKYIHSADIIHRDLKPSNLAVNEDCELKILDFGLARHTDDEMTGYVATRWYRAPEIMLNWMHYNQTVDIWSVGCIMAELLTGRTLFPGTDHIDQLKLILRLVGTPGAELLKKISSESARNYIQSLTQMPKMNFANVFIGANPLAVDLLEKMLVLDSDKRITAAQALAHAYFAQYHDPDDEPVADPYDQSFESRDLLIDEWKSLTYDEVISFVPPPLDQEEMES
ZIPK(h), sequence (O43293 whole entry): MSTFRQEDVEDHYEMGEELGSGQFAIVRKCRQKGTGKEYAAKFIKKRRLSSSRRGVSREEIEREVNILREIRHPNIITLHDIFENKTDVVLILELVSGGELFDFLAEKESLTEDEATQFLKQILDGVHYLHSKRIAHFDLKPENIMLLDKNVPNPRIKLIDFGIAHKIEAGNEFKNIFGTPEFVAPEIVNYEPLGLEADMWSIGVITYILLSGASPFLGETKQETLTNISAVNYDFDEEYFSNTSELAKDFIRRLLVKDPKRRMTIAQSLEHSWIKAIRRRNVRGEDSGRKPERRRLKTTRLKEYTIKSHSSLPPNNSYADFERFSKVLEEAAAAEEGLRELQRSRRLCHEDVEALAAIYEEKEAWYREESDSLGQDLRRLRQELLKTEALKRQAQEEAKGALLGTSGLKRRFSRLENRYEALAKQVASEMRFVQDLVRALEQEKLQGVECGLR
T5 sequence (O75676 whole entry): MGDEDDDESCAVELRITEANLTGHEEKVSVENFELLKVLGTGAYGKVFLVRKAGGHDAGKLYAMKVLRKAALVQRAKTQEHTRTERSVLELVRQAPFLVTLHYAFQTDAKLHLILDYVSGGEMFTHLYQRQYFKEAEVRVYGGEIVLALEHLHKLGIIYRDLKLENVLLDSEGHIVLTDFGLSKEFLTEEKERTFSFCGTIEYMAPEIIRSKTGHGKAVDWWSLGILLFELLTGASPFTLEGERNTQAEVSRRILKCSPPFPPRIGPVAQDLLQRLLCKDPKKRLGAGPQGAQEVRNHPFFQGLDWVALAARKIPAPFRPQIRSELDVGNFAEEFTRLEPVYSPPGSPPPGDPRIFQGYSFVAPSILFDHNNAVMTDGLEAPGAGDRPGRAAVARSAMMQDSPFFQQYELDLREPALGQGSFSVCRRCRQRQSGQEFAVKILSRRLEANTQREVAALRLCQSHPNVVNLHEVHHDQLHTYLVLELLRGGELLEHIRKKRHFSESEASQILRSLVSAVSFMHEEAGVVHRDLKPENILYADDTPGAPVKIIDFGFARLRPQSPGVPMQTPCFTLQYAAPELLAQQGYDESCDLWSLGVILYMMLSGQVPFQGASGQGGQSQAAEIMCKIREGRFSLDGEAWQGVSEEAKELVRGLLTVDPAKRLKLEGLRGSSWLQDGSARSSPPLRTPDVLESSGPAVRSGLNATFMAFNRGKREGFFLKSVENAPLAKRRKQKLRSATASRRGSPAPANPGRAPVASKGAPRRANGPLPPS

Row | Sequence | % activity (ARK5(h)) [%] | % activity (SAPK2a(T106M)(h)) [%] | % activity (MKK7β(h)) [%] | % activity (CaMKIδ(h)) [%] | % activity (ZIPK(h)) [%] | % activity (PKCα(h)) [%] | % activity (PKCζ(h)) [%] | % activity (MSK2(h)) [%] | % activity (cKit(h)) [%] | % activity (LIMK1(h)) [%]
1 | FAKLAARLYRKALARQLGVAA [MMI-0300] | 78 | 97 | 100 | 10 | 28 | 89 | 81 | 56 | 53 | 88
2 | HRRIKAWLKKIKALARQLGVAA (Mammal) [MMI-0500] | 20 | 32 | – | 0 | 1 | 3 | 7 | 14 | 45 | 87
3 | KAFAKLAARLYRKALARQLGVAA [MMI-0400] | 69 | 99 | 94 | 17 | 13 | 86 | 75 | 52 | 43 | 92
4 | YARAAARQARAKALARQLGVAA [MMI-0100] | 108 | 101 | 137 | – | – | – | 82 | – | 95 | –
5 | YARAAARQARAKALNRQLGVA (Mammal) [MMI-0200] | 93 | 100 | – | 47 | 67 | 100 | 98 | 88 | 110 | –
